# Results from the DeepSol protein solubility set.
# Assay: soluble on expression in E. coli; label from the status in PepcDB or PDB records
row,Sequence,soluble on expression in E. coli
1,MWGETFDDFENDEGEMAMAKQNLIAEPARADFTFAKLPLGIQPVDFMKTHFAETAGKSMQFRKGTTTLAFVYEPATPADKGGIIVAVDSRASSGEYISSKSVMKILDIGDRMVATMAGGAADCQFWTRIVAKYCTLYELREKTSITVSAASKYFANTLYGYRGQGLSVGSMVAGYDKKGPQIFKVDSEGDRCQLKVCSVGSGSLNAYGILDNHYKPKMTDDEARKLGLRAIMHATYRDSGSGGVCNLCHITPTEKIRLPPMDVSKLWYEFADELGRDITYNPVE,soluble
2,MSLADDHIYVTSSGGSFLENVRKHMAEPFEKQSGVKVTLVPGTNPAHALKILSSRGTPPYDVAAFGGNDMYRLIRAKKLAQVDEKSVPSLADVPEKFKADWEGCGSLYDYSSVGIAYRPDKIQGGVKSWKEFVERTVAGEFGKQVFFNNLSSNVRGAEVLSMFGKIYGSGYGDIEASIATLERMKPHIFKFFTAFNDPVVLLTSGEGAIGPGWDGRTFIAEDSTKGMVKWVDPTEGAVSSGPVMAVVKGGKEDLAKAFMNYALGEEAQKAFCEAMYYGAVNRKVQYSEKLKHRLPSIDSVQLVDTALLIKNMSALLDLWNKRIASEGHHHHHH,soluble
3,SLSAKDKANVKAIWGKILPKSDEIGEQALSRMLVVYPQTKAYFSHWASVAPGSAPVKKHGITIMNQIDDCVGHMDDLFGFLTKLSELHATKLRVDPTNFKILAHNLIVVIAAYFPAEFTPEIHLSVDKFLQQLALALAEKYR,soluble
4,MGSDKIHHHHHHMYGVMIMKLKTNVFHFTPFSKKQLQVLTWWVNPSTKDSEAIICDGSVRAGKTVIMSLSYVMWAMHTFNGQQLGMAGKTIGSFRRNVLRPLKQMLAGRGYKVIDHRTDNMFEVVKNGKANYFFIFGGKDEASQDLVQGLTAAGFFFDEVALMPQSFVNQATARVSVSGGKYWFNMNPEGPYHWFKLNWIDDLKGKRALRIHFRMEDNPSLSEDVIGRYKRNYSGVFYQRYILGLWVMSEGVIYDNFNRETMVVSEPPGRCTKYYVSVDYGTQNPTVFLLWGFYNGVWYCLKEYYYDGRHSARQKTDDQYANDLDEFVGNINARIIIDPSAASFIAVLRNRHYRIIRADNDVLNGIRETQSAMNNGLIKFTDNLPNLFKELASYIWDDKASSNGEDKVIKEHDHAMDSMRYFVYMVLRHNNKAKVIKNKYF,not soluble
5,MNINEILKKLINKSDLEINEAEELAKAIIRGEVPEILVSAILVALRMKGESKNEIVGFARAMRELAIKIDVPNAIDTAGTGGDGLGTVNVSTASAILLSLVNPVAKHGNRAVSGKSGSADVLEALGYNIIVPPERAKELVNKTNFVFLFAQYYHPAMKNVANVRKTLGIRTIFNILGPLTNPANAKYQLMGVFSKDHLDLLSKSAYELDFNKIILVYGEPGIDEVSPIGNTFMKIVSKRGIEEVKLNVTDFGISPIPIEKLIVNSAEDSAIKIVRAFLGKDEHVAEFIKINTAVALFALDRVGDFREGYEYADHLIEKSLDKLNEIISMNGDVTKLKTIVVKSSG,soluble
6,MGSDKIHHHHHHMYAYHPEDIEDIKELIAQTENEQVEFKETTGQLERGMETLCAFLNGEGGTVLFGITDKGKIIGQEVADVTKRSIAEAINRLEPTANVHVFYIPLPDSSKKIIALHVENSRDNRPFCYKSRPYYRVESVTSAMPQAVYNQLLIIRDEAKYRWELFENPKLSLQDMDENEILKTVRLGIECGRLPENTGNNLSIILEKFGLLVNGVLNNAAAVLFANRELIEYPQCLLRLARFKGTDKMVFMDNQRVQGNLFQLLDSAMTFIFKHLSLSGTTEALEREEHLTIPYKAIREGIINSLCHRQFRTPGGSVGIAIYDDRVEIENPGTFPHGWDMERMKSEHCSEPRNPLIANVLYKRKLLENWGRGISLMTEECRKANLPEPEFKLANGFVILVFRYGTNNHTSTMQVPHKHHISTIQVQSLLNIMEYNTYSVKEMMELLELKNRSYFSKEYLKPAVETGVIEPIFPDQPKSPKQKYRLTEKGKALLEKR,not soluble
7,MGSDKIHHHHHHMAKIGRNEPCPCGSGKKYKRCCMSGVGKQQADFVDSIEQMLAMNPDLSMDELNIIAEHQSNKINTTPHKDFCGLAPGQVNNWLYAPFPELEGITINTPSDLSTSPVMRYLKLMLETALANGGQIKATAKGNLPAALVKEASAFLPEFAVAPFERAISISEFAGANEDKFNALHYCRVLAKIAGIFKLKSNKFHVSAWAKHQYQRAGLESFFPIMLETAVYKYNWGYFDLWENEIPLQHFWLFMLWRLQHHKSHERLVDEMIQAFPDLLNELYEEEYMSDRDKLAVLIESRFIHRFLQFFGFVMVDPRRVIDGKRVAAQVTCLRSMHETFNFRIE,not soluble
